Laboratory results published in patent US20030092035A1 (CALIFORNIA INSTITUTE OF TECHNOLOGY, published 2003).
Ends that are not written are not given here.

Experiments:
[1] = target: T1, MRGA4-GFP fusion protein (mouse) (UniProt Q91WW2); assay: cell-based or functional assay
T1 sequence: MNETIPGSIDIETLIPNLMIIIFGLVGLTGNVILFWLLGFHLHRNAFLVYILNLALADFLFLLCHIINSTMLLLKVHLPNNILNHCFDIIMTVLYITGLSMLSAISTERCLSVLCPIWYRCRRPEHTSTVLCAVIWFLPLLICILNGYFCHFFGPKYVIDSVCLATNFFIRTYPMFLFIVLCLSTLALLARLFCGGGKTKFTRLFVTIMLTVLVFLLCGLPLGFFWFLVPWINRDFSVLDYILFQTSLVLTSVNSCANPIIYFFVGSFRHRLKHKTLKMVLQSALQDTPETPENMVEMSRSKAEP

MRGA1-GFP fusion protein = target: T2, MRGA1-GFP fusion protein (mouse, UniProt Q91WW5 1-304); assay: cell-based or functional assay
T2 sequence: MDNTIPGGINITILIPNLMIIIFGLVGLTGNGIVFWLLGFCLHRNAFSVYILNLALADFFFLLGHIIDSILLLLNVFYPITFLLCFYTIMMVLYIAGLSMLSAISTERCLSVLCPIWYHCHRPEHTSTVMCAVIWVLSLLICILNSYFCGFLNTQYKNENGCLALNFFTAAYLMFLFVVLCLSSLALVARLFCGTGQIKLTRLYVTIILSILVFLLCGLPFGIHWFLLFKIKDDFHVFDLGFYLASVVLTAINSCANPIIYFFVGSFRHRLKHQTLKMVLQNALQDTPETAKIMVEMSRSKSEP

EC50, Ca2+ dose-response in HEK-Galpha15 cells [1] [nM]	EC50, Ca2+ dose-response in HEK-Galpha15 cells (MRGA1-GFP fusion protein) [nM]	Molecule
200	60	ACTH (peptide)
–	200	NPFF (peptide)
60	–	AGEGLNSQFWSLAAPQRF-NH2 (peptide, UniProt O15130 93-110, looked up, species assumed, ends and bridges not checked) [NPAF]
–	~20	FLRF-NH2 [FLRFamide]
